Results published in patent US20150307603A1 (MODIQUEST B V, published 2015).
Non-standard residues stand in square brackets, D forms with d. No end group written: not given here. Cit = NC(=O)NCCC[C@H](N)C(=O)O

Experiments:
CFC-1 [1] = target: T1, CFC-1; experiment: ELISA, Ab 2 ug/well
T1 construct: Positive control for anti-citrulline reactivity; also called cfc1 XG; Cfc1-peptide
Procedure: (§1) Biotin and citrulline-containing peptides derived from histone 2A were immobilized on NEUTRAVIDIN®-coated 96-well ELISA plates (0.3 μg/well). CFC-1 and CFC-0 were coated at the same concentration and served as positive and negative controls, respectively, for specific anti-citrulline reactivity and as coating controls. Non-coated wells were used to test for aspecific binding of the antibodies. […] Detection of bound anti-citrulline antibodies was performed by incubating the wells with rabbit anti-human HRP (1:2000) for 1 hour at RT followed by incubation with TMB substrate. The resulting OD (y-axis) is a measure for antibody binding.

[2] = target: T2, peptide no. 1 (human histone 2A) (human, also: biotin-labelled); experiment: ELISA, Ab 2 ug/well
T2 construct: also called peptide 1; AAASGXGKQGGK
T2 peptide: AAASG[Cit]GKQGGK
Procedure: as §1

[3] = target: T3, peptide no. 2 (human histone 2A) (human, also: biotin-labelled); experiment: ELISA, Ab 2 ug/well
T3 construct: also called peptide 2
T3 peptide: AKAKS[Cit]SSRAGL
Procedure: as §1

[4] = target: T4, peptide no. 3 (human histone 2A) (human, also: biotin-labelled); experiment: ELISA, Ab 2 ug/well
T4 construct: also called peptide 3
T4 peptide: KSRSS[Cit]AGLQFP
Procedure: as §1

[5] = target: T5, peptide no. 4 (human histone 2A) (human, also: biotin-labelled); experiment: ELISA, Ab 2 ug/well
T5 construct: also called peptide 4
T5 peptide: QFPVG[Cit]VHRLLR
Procedure: as §1

[6] = target: T6, peptide no. 5 (human histone 2A) (human, also: biotin-labelled); experiment: ELISA, Ab 2 ug/well
T6 construct: also called peptide 5
T6 peptide: VGRVH[Cit]LLRKGN
Procedure: as §1

[7] = target: T7, peptide no. 6 (human histone 2A) (human, also: biotin-labelled); experiment: ELISA, Ab 2 ug/well
T7 construct: also called peptide 6
T7 peptide: VHRLL[Cit]KGNYSE
Procedure: as §1

[8] = target: T8, peptide no. 7 (human histone 2A) (human, also: biotin-labelled); experiment: ELISA, Ab 2 ug/well
T8 construct: also called peptide 7
T8 peptide: GNYSE[Cit]VGAGAP
Procedure: as §1

[9] = target: T9, peptide no. 8 (human histone 2A) (human, also: biotin-labelled); experiment: ELISA, Ab 2 ug/well
T9 construct: also called peptide 8
T9 peptide: AGNAA[Cit]DNKKTR
Procedure: as §1

[10] = target: T10, peptide no. 9 (human histone 2A) (human, also: biotin-labelled); experiment: ELISA, Ab 2 ug/well
T10 construct: also called peptide 9
T10 peptide: DNKKT[Cit]IIPRHL
Procedure: as §1

[11] = target: T11, peptide no. 10 (human histone 2A) (human, also: biotin-labelled); experiment: ELISA, Ab 2 ug/well
T11 construct: also called peptide 10
T11 peptide: TRIIP[Cit]HLQLAI
Procedure: as §1

[12] = target: T12, peptide no. 11 (human histone 2A) (human, also: biotin-labelled); experiment: ELISA, Ab 2 ug/well
T12 construct: also called peptide 11
T12 peptide: LQLAI[Cit]NDEELN
Procedure: as §1

[13] = target: T13, peptide no. 12 (human histone 2A) (human, also: biotin-labelled); experiment: ELISA, Ab 2 ug/well
T13 construct: also called peptide 12
T13 peptide: NKLLG[Cit]VTIAQG
Procedure: as §1

msFibα XH = target: T14, msFibα XH (mouse, X at position 15 = citrulline; biotin-labelled); experiment: ELISA, Ab 0.4 ug/well
T14 peptide: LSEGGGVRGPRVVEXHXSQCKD
Procedure: as §1, with “fibrinogen and vimentin” for “histone 2A”
(§2) Biotin-labeled and citrulline-containing fibrinogen and vimentin peptides (Table 5) were also tested for reactivity with the therapeutic antibodies. Peptides were coated on 96-well NEUTRAVIDIN®-ELISA plates.

msFibα XG = target: T15, msFibα XG (mouse, X at position 8 = citrulline; biotin-labelled); experiment: ELISA, Ab 0.4 ug/well
T15 peptide: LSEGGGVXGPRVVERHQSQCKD
Procedure: as §1, with “fibrinogen and vimentin” for “histone 2A”
as §2

[14] = target: T16, human recombinant histone 2A (human); experiment: ELISA, Ab 0.08 ug/well
T16 construct: Non-deiminated; also called H2A
Excerpt: (§3) The resulting OD (y-axis) is a measure for antibody binding. H1-recombinant histone 1; H1/p2-huPAD2 recombinant histone 1; H1/p4-huPAD4 recombinant histone 1, and so forth (x-axis).

[15] = target: T17, huPAD2-deiminated human recombinant histone 2A (human); experiment: ELISA, Ab 0.08 ug/well
T17 construct: also called H2A/p2; histone 2A/p2
Excerpt: as §3

[16] = target: T18, huPAD4-deiminated human recombinant histone 2A (human); experiment: ELISA, Ab 0.08 ug/well
T18 construct: also called H2A/p4; histone 2A/p4
Excerpt: as §3

[17] = target: T19, human recombinant histone 2B (human); experiment: ELISA, Ab 0.08 ug/well
T19 construct: Non-deiminated; also called H2B
Excerpt: as §3

[18] = target: T20, huPAD2-deiminated human recombinant histone 2B (human); experiment: ELISA, Ab 0.08 ug/well
T20 construct: also called H2B/p2
Excerpt: as §3

[19] = target: T21, huPAD4-deiminated human recombinant histone 2B (human); experiment: ELISA, Ab 0.08 ug/well
T21 construct: also called H2B/p4
Excerpt: as §3

[20] = target: T22, huPAD2-deiminated human recombinant histone 3 (human); experiment: ELISA, Ab 0.08 ug/well
T22 construct: also called H3/p2; histone 3/p2
Excerpt: as §3

[21] = target: T23, huPAD4-deiminated human recombinant histone 3 (human); experiment: ELISA, Ab 0.08 ug/well
T23 construct: also called H3/p4
Excerpt: as §3

[22] = target: human recombinant histone 4 (human, UniProt P62805 2-103); experiment: ELISA, Ab 0.08 ug/well
Excerpt: as §3

CFC-1 [23] = target: T1, CFC-1; experiment: ELISA, Ab 0.08 ug/well
Excerpt: as §3

[24] = target: T3, peptide no. 2 (human histone 2A); experiment: ELISA, Ab 0.08 ug/well
Procedure: as §1

[25] = target: T7, peptide no. 6 (human histone 2A); experiment: ELISA, Ab 0.08 ug/well
Procedure: as §1

[26] = target: T10, peptide no. 9 (human histone 2A); experiment: ELISA, Ab 0.08 ug/well
Procedure: as §1

B1: RhmAb2.102 (antibody, human IgG1, lambda)
heavy: not shown
light: QSVLTQPPSMSAAPGQKVTISCSGSSSNIGNNYVSWYQQVPGTAPKLLIYDDNKRPSGIPGRFSGSKSATSATLGITGLQAGDEADYYCGSWDDNLSVVLFGGGTKLTVLGQPKAAPSVTLFPPSSEELQANKATLVCLISDFYPGAVTVAWKADSSPVKAGVETTTPSKQSNNKYAASSYLSLTPEQWKSHRSYSCQVTHEGSTVEKTVAPTECS
notes: Human IgG1 lambda; also called Rhm2.102
- OD (CFC-1 [1]): 3.21 OD450
- OD [2]: 3.05 OD450
- OD [3]: 0.27 OD450
- OD [4]: 0.286 OD450
- OD [5]: 1.3 OD450
- OD [6]: 0.111 OD450
- OD [7]: 0.752 OD450
- OD [8]: 0.059 OD450
- OD [9]: 0.06 OD450
- OD [10]: 0.063 OD450
- OD [11]: 0.07 OD450
- OD [12]: 0.067 OD450
- OD [13]: 0.067 OD450
- OD (msFibα XH): 0.076 OD450
- OD (msFibα XG): 0.773 OD450
- OD [14]: 0.06 OD450
- OD [15]: 1.96 OD450
- OD [16]: 1.75 OD450
- OD [17]: 0.054 OD450
- OD [18]: 0.053 OD450
- OD [19]: 0.052 OD450
- OD [20]: 0.493 OD450
- OD [21]: 0.093 OD450
- OD [22]: 0.067 OD450
- OD (CFC-1 [23]): 2.15 OD450
- OD [24]: 0.086 OD450
- OD [25]: 0.123 OD450
- OD [26]: 0.06 OD450
